Test results reported in patent US20250361274A1, “PEPTIDE AND PEPTIDE-CONTAINING AGENT” (PEPTIDREAM INC., priority 2022, published 2025).
Numbered stars: 1 amine (or outer) side, 2 acyl side, 3 side chain; on linkers, the order of the positions; unused ones are H or OH. Bridge positions count the residues as written; N and C are the ends. Square brackets hold non-standard residues; d marks the D form. Ends that are not written are not given here. KCOpipzaa = N6-(4-(carboxymethyl)piperazine-1-carbonyl)-L-lysine, O=C(NCCCC[C@H](N[*:1])C(=O)[*:2])N1CCN(CC(=O)[*:3])CC1; Bph3F = (S)-2-amino-3-(3'-fluoro-[1,1'-biphenyl]-4-yl)propanoic acid, O=C([C@H](Cc1ccc(-c2cccc(F)c2)cc1)N[*:1])[*:2]; Cha4tH = (S)-2-amino-3-((1r,4S)-4-hydroxycyclohexyl)propanoic acid, O=C([C@H](C[C@H]1CC[C@H](O[*:3])CC1)N[*:1])[*:2]; 3Pal(6-Ph) = N[C@@H](Cc1ccc(-c2ccccc2)nc1)C(=O)O; Phe(4-COOH) = N[C@@H](Cc1ccc(C(=O)O)cc1)C(=O)O; NMePhe(4-Me) = CN[C@@H](Cc1ccc(C)cc1)C(=O)O; Pro(trans-4-F) = O=C(O)[C@@H]1C[C@@H](F)CN1; Bip = N[C@@H](Cc1ccc(-c2ccccc2)cc1)C(=O)O; Phe(4-F) = N[C@@H](Cc1ccc(F)cc1)C(=O)O; cisHyp = O=C(O)[C@@H]1C[C@H](O)CN1; Hyp = O=C(O)[C@@H]1C[C@@H](O)CN1; NMeF = CN[C@@H](Cc1ccccc1)C(=O)O; 4Pal = N[C@@H](Cc1ccncc1)C(=O)O; Aad = N[C@@H](CCCC(=O)O)C(=O)O; Cha = N[C@@H](CC1CCCCC1)C(=O)O; Cba = N[C@@H](CC1CCC1)C(=O)O; βAla = NCCC(=O)O

What was measured:
BMP7 = molecular target: T1, BMP7 (Homo sapiens, UniProt P18075); assay: BMP7 signal transduction inhibitory activity: SMAD1 phosphorylation by BMP7 stimulus, A549 cells; type: cell-based; conditions: for aLISA BMP7: A549 cells; for aLIZA BMP7 (10 nM) % Inh: SMAD1 phosphorylation by BMP7 stimulus, peptide conc. in assay 10, 100, 1000 nM, class symbols; for aLIZA BMP7 (10 nM) % inh: peptide 10, 100, 1000 nM, Table 6; for aLISA BMP7 (10 nM) % inh: BMP7 10 nM stimulus, peptide conc. in assay 1, 10, 100 nM
T1 sequence (P18075 293-431): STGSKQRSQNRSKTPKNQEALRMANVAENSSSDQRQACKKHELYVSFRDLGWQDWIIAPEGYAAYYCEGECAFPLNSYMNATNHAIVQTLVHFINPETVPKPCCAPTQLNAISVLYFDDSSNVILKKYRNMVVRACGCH
How it was run: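 A549 cells were stimulated with 10 nM BMP7, and peptide inhibition of signalling was measured as SMAD1 phosphorylation. Peptides were tested at three concentrations, in sets ranging from 1–100 nM to 100–1,000 nM, or as eight-point 1/3 dilution series starting at 100 nM or 1,000 nM.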

BMP4 = molecular target: T2, BMP4 (Homo sapiens, UniProt P12644); assay: BMP4 signal transduction inhibitory activity: SMAD1 phosphorylation by BMP4 stimulus, AlphaLISA SureFire, A549 cells; type: cell-based; conditions: for aLISA BMP4: A549 cells; for aLIZA BMP4 (0.2 nM) % Inh: SMAD1 phosphorylation by BMP4 stimulus, peptide conc. in assay 0.02, 0.2, 2 nM, class symbols; for aLIZA BMP4 (0.2 nM) % inh: Table 6; for aLISA BMP4 (0.2 nM) % inh: BMP4 0.2 nM stimulus, peptide conc. in assay 0.2, 2, 20 nM
T2 sequence (P12644 293-408): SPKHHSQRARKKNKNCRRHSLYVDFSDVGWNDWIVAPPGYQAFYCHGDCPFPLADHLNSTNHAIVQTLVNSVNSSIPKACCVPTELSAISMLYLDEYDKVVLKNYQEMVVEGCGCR

## 110 ({CH2CO}-ERVYVDR[Bip]PY[Pro(trans-4-F)][Bip]Y[Phe(4-COOH)][Phe(4-COOH)]SC[βAla][dE]-OH; thioether N-17; not fully specified) [compound 110]
BMP7; inhibition of SMAD1 phosphorylation by BMP7 stimulus, peptides of Synthesis 2, classes A-D, ND
  aLISA BMP7: B (showed less than 50% of inhibitory activity in 1 nM-addition zone and showed 50% or more of inhibitory activity in 10 nM-addition zone)
BMP4; inhibition of SMAD1 phosphorylation by BMP4 stimulus, peptides of Synthesis 2, classes A-C, ND
  aLISA BMP4: A (showed an inhibitory activity of 50% or more in a zone to which the peptide was added to in an amount of 0.2 nM)

## 252 (LRVYVDR[3Pal(6-Ph)]SYV[Bip][4Pal][Phe(4-COOH)][Phe(4-COOH)]SCG-NH2; not fully specified) [compound 252]
BMP7
  aLIZA BMP7 (10 nM) % Inh: ND (the inhibitory activity was less than 30% at the maximum concentration evaluated)
BMP4
  aLIZA BMP4 (0.2 nM) % Inh: C (showed less than 30% of inhibitory activity in 0.2 nM-addition zone and showed 30% or more of inhibitory activity in 2 nM-addition zone)

## 320 (ERV[Phe(4-COOH)][Cha4tH][KCOpipzaa]R[3Pal(6-Ph)][KCOpipzaa]Y[Hyp][Bph3F][4Pal][Phe(4-COOH)][Phe(4-COOH)]SCG-NH2; not fully specified) [compound 320]
BMP7
  aLIZA BMP7 (10 nM) % inh: E (showed less than 30% of inhibitory activity in 100 nM-addition zone and showed 30% or more of inhibitory activity in 1,000 nM-addition zone)
BMP4; peptide 0.02, 0.2, 2 nM
  aLIZA BMP4 (0.2 nM) % inh: B (showed less than 30% of inhibitory activity in 0.02 nM-addition zone and showed 30% or more of inhibitory activity in 0.2 nM-addition zone)

## 125 ({CH2CO}-E[Aad]VYVDR[Bip]PYV[Bip]Y[Phe(4-COOH)][Phe(4-COOH)]SCG-NH2; thioether N-17; not fully specified) [compound 125]
BMP7; inhibition of SMAD1 phosphorylation by BMP7 stimulus, peptides of Synthesis 1, classes E, F, ND
  aLISA BMP7: E (showed 50% or more of inhibitory activity in a zone to which the peptide was added in an amount of 10 nM)
BMP4; inhibition of SMAD1 phosphorylation by BMP4 stimulus, peptides of Synthesis 1, classes D-F, ND
  aLISA BMP4: E (showed less than 50% of inhibitory activity in 0.2 nM-addition zone and showed 50% or more of inhibitory activity in 2 nM-addition zone)

## 243 (ERVYVDR[3Pal(6-Ph)]SYV[Bip]Y[Phe(4-COOH)][Phe(4-COOH)]SCG-NH2) [compound 243]
BMP7
  aLIZA BMP7 (10 nM) % Inh: E (showed less than 30% of inhibitory activity in 100 nM-addition zone and showed 30% or more of inhibitory activity in 1,000 nM-addition zone)
BMP4
  aLIZA BMP4 (0.2 nM) % Inh: C (showed less than 30% of inhibitory activity in 0.2 nM-addition zone and showed 30% or more of inhibitory activity in 2 nM-addition zone)

## 24 ({CH2CO}-A[KCOpipzaa]VYV[KCOpipzaa]R[Bip]PYP[Bip]Y[Phe(4-COOH)][Phe(4-COOH)]SCG-NH2; thioether N-17; not fully specified) [compound 24]
BMP7; 10 nM BMP7, peptides of Synthesis 2, peptide 1, 10, 100 nM
  aLISA BMP7: C (showed less than 50% of inhibitory activity in 10 nM-addition zone and showed 50% or more of inhibitory activity in 100 nM-addition zone)
BMP4; SMAD1 phosphorylation, peptides of Synthesis 2, peptide 0.02, 0.2, 2 nM
  aLISA BMP4: A (showed an inhibitory activity of 50% or more in a zone to which the peptide was added to in an amount of 0.2 nM)

## 400 (FG[NMeF]G[Bip]GDE[Cha]Q[NMeF]L[cisHyp]CG-NH2) [compound 400]
BMP7
  aLISA BMP7 (10 nM) % inh: C (showed less than 30% of inhibitory activity in a zone to which the peptide was added in an amount of 1 nM and showed 30% or more of inhibitory activity in 10 nM-addition zone)
BMP4
  aLISA BMP4 (0.2 nM) % inh: ND (the inhibitory activity was less than 30% at the maximum concentration evaluated)

## 316 (ERV[Phe(4-COOH)][Cba][KCOpipzaa]R[3Pal(6-Ph)][KCOpipzaa]Y[Hyp][Bph3F][4Pal][Phe(4-COOH)][Phe(4-COOH)]SCG-NH2; not fully specified) [compound 316]
BMP7
  aLIZA BMP7 (10 nM) % inh: ND (the inhibitory activity was less than 30% at the maximum concentration evaluated)
BMP4; peptide 0.02, 0.2, 2 nM
  aLIZA BMP4 (0.2 nM) % inh: C (showed less than 30% of inhibitory activity in 0.2 nM-addition zone and showed 30% or more of inhibitory activity in 2 nM-addition zone)

## 396 ([Phe(4-F)]G[NMeF]G[Bip]GDD[Cha]A[NMePhe(4-Me)]LHCG-NH2; not fully specified) [compound 396]
BMP7
  aLISA BMP7 (10 nM) % inh: C (showed less than 30% of inhibitory activity in a zone to which the peptide was added in an amount of 1 nM and showed 30% or more of inhibitory activity in 10 nM-addition zone)
BMP4
  aLISA BMP4 (0.2 nM) % inh: A (showed less than 30% of inhibitory activity in 2 nM-peptide-addition zone and showed 30% or more of inhibitory activity in 20 nM-addition zone)
